Laboratory results as given in patent US20150218285A1 (TORAY INDUSTRIES, published 2015).
Numbering of substitutions follows the chain as printed.

T1: CAPRIN-1 protein on the cell surface of human cancer cells (human, UniProt Q14444 2-709)
T1 sequence (looked up): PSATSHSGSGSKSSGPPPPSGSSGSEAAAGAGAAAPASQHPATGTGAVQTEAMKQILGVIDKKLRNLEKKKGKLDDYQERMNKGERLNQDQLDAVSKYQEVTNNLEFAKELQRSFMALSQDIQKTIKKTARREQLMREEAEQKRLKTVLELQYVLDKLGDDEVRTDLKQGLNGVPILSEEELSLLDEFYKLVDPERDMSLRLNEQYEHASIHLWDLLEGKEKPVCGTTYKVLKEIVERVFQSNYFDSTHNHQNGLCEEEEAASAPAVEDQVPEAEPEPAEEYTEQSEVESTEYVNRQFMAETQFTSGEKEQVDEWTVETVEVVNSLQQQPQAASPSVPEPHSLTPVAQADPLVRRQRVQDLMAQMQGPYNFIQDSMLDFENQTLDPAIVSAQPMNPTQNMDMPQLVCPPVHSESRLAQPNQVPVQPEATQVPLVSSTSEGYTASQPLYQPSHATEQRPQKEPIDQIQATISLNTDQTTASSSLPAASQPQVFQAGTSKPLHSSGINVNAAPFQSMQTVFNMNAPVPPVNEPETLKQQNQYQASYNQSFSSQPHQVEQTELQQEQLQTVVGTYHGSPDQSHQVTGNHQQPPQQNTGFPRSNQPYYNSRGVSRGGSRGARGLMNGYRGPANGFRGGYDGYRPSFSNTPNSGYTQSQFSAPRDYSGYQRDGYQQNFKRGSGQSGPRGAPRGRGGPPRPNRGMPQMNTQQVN

T2: human CAPRIN-1 recombinant protein (human, UniProt Q14444 1-709)
T2 construct: also called CAPRIN-1 protein; human CAPRIN-1 protein
T2 sequence: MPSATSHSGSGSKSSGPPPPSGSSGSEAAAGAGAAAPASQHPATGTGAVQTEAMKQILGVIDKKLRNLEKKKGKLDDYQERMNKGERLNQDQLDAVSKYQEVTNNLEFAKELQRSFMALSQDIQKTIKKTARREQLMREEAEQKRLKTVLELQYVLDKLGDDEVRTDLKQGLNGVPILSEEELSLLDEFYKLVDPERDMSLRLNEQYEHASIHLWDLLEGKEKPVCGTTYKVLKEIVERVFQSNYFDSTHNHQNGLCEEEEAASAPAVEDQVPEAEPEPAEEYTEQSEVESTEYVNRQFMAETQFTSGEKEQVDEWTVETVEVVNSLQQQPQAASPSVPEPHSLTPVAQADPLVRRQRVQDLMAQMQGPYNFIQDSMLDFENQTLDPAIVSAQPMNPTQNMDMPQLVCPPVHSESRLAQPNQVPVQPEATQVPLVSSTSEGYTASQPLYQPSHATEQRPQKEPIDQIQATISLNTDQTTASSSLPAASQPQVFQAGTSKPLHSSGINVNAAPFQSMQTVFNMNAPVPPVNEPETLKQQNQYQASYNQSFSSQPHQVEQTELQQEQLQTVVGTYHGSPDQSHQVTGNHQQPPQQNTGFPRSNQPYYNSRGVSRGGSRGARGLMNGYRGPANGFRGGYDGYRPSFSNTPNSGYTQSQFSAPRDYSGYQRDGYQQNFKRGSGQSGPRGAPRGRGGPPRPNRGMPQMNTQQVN

T3: peptide set forth in SEQ ID NO: 267 (human)
T3 peptide: QQPQAASPSVPE

T4: polypeptide set forth in SEQ ID NO: 266 (human)
T4 construct: identified by ELISA on synthetic 12-16 aa peptides of human CAPRIN-1
T4 peptide: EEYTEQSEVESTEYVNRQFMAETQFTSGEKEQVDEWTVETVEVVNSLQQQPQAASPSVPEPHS

T5: polypeptide set forth in SEQ ID NO: 430 (human)
T5 peptide: ATQVPLVSSTSEGYTA

B1: mouse monoclonal antibody #12 (antibody, V domains shown)
VH: EVQLHQFGAELVKPGASVKISCKASGYTFTDYNMDWVKQSHGKSLEWIGDINPNYDSTSYNQKFKGKATLTVDKSSSTAYMELRSLTSEDTAVYYCARSRSYDYEGFAYWGQGTLVTVSA
VL: DIQMTQSPASLSASVGETVTITCRASGNIHNYLAWYQQKQGKSPQLLVYNAKTLADGVPSRFSGSGSGTQYSLKINSLQPEDFGSYYCQHFWSTLTFGAGTKLELKR
notes: mouse hybridoma antibody
B2: mouse monoclonal antibody #14 (antibody, V domains shown)
VH: B1 VH
VL: DIQLTQSPASLSASVGETVTITCRASGNIHNYLAWYQQKQGKSPQLLVYNAKTLADGVPSRFSGSGSGTQYSLKINSLQPEDFGSYYCQHFWSTLTFGGGTKLEIK
notes: mouse hybridoma antibody
B3: mouse monoclonal antibody #15 (antibody, V domains shown)
VH: B1 VH
VL: SGDRVSLSCRASQSISNYLHWYQQKSHESPRLLIKYASQSISGIPSRFSGSGSGTDFTLSINSVETEDFGMYFCQQSNSWPYTFGAGTKLEIKQ
notes: mouse hybridoma antibody
B4: mouse monoclonal antibody #3 (antibody, V domains shown)
VH: GGGLVKPGGSLKLSCAASGFTFSSYGMSWVRQTPEKRLEWVATISSGGSYTYYPDSVKGRFTISRDNAKNTLYLQMSSLRSEDTAMYYCASLASYYFDYWGQGTTLTVSS
VL: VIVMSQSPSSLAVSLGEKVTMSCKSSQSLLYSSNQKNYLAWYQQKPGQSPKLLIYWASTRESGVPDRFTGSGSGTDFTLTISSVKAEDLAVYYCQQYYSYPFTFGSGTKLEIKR
B5: mouse monoclonal antibody #4 (antibody, V domains shown)
VH: GAELVRSGASVKMSCKASGYSFTDYNMYWVKQTPGQGLEWIGYIYPGNGGTNYNQKFKGKATLTADTSSSTAYMQISSLTSEDSAVYFCARDYDDGGYAMDYWGQGTTVTVSS
VL: DIQMTQSPASLSASVGETVTITCRASGNIHNYLTWYQQKQGKSPQLLVYNAKTLADGVPSRFSGSGSGTQYSLKINRLQPEDFGSYYCQHFWNIPWTFGGGTKLNSR
notes: mouse hybridoma antibody
B6: mouse monoclonal antibody #18 (antibody, V domains shown)
VH: LQESGAELARPGASVKLSCKASGYTFTSYWMQWVKQRPGQGLEWIGAIYPGDGDTRYTQKFKGKATLTADKSSSTAYMQLSSLASEDSAVYYCARGEYGNYFAYWGQGTTVTVSS
VL: TSDASLGERVTITCKASQDINSYLSWFQQKPGKSPKTLIYRANRLVDGVPSRFSGSGSGQDYSLTISSLEYEDMGIYYCLQYDEFPLTFGGGTKLEIKQ
notes: mouse hybridoma antibody
B7: humanized anti-CAPRIN-1 antibody #2 (antibody, human IgG1, V domains shown)
VH: EVQLVESGGGLVQPGGSLRLSCAASGFSFSGSYYMSWVRQAPGKGLEWIAYIYIGDGVTAYANWAKGRFTISKDNSKNTLYLQMNSLRAEDTAVYFCARGNKLWGPGTLVTVSS
VL: DIQMTQSPSSLSASVGDRVTIKCQASQSISSYLAWYQQKPGKAPKRLIYDASNLDSGVPSRFSGSGSGTDFTFTISSLQPEDIATYYCQCTAVSSATIYGNAFGGGTKVEIK
B8: humanized anti-CAPRIN-1 antibody #1 (antibody, human IgG1, V domains shown)
VH: B7 VH with E1Q, Q13K, K73R, S76A, T79S, K102R, P106Q
VL: B7 VL with S14A, A43P
B9: humanized anti-CAPRIN-1 antibody #3 (antibody, human IgG1, V domains shown)
VH: B7 VH with K73R, F96Y
VL: B7 VL
B10: human-chicken chimeric antibody #1 (antibody, human IgG1, kappa, V domains shown)
VH: AVTLDESGGGLQMSRGGLSLVCKASGFDFSSYQMNWIRQAPGKGLEFVAAINKFGNSTGHGAAVKGRVTISRDNGQSTVRLQLNNLRAEDTAIYFCTKHAYGYCGSGTWCAAGEIDAWGHGTEVIVSS
VL: QAASTQPSSVSANPGETVEITCSGGGSYSYGWFQQKSPGSAPVTVIYYNNKRPSDIPSRFSGSKSGSTGTLTITGVQADDEAVYYCGSGDSTDTAVFGAGTTLTVLG
notes: chicken variable domains with human IgG1 H-chain and L-chain constant domains; also called human-chicken chimeric monoclonal antibody #1
B11: mouse anti-CAPRIN-1 antibody #31 (antibody, V domains shown)
VH: GPELVKPGASVKISCKASGYSFTGYFMNWVMQSHGKSLEWIGRINPYNGDTFYNQKFKGKATLTVDKSSSTAHMELRSLASEDSAVYYCARRIHYYYGSSYYAMDYWGQEPHH
VL: DVQITQSPSYLAASPGETITINCRASKSISKYLAWYQEKPGKTNKLLIYSGSTLQSGIPSRFSGSGSGTDFTLTISSLEPEDFAMYYCQQHNEYPWTFGGGTKLEIKR
notes: mouse hybridoma antibody; also called mouse anti-CAPRIN-1 monoclonal antibody #31

The binders below were run against T1, CAPRIN-1 protein on the cell surface of … (assay: cell-based or functional assay).

| Binder | cytotoxicity (ADCC, 51Cr release) on SK-Hep-1 [%] |
| --- | --- |
| B1 | ≥ 12 |
| B2 | ≥ 12 |
| B3 | ≥ 12 |
| B4 | ≥ 12 |
| B5 | ≥ 12 |
| B6 | ≥ 12 |

What follows are binders tested against T1, CAPRIN-1 protein on the cell surface of … (assay: flow cytometry on Hep3B, HepG2, SK-Hep-1, SW480; culture supernatant; vs isotype control).
Procedure: Subsequently, four liver cancer cell lines (Hep3 GB, HepG2, SK-Hep-1, and SW480), which were confirmed to express a CAPRIN-1 gene, were investigated for whether or not a CAPRIN-1 protein is expressed on the surfaces of these cells. 1×10⁶ cells of each cell line were centrifuged with a 1.5-mL micro centrifugation tube. To the cells was added the culture supernatant (100 μL) containing any of mouse monoclonal antibodies #1 to #22 against a CAPRIN-1 protein reacting to cancer cell surface produced in Example 4 and mouse-chicken chimeric antibodies #1 to #3 against a CAPRIN-1 protein produced in the above (2), followed by being left to stand on ice for 1 hour. After washing with PBS, the cells were suspended in a FITC-labeled goat anti-mouse IgG antibody (manufactured by Invitrogen Corporation) diluted by 500-fold with PBS containing 0.1% FBS, followed by being left to stand on ice for 1 hour. After washing with PBS, the fluorescence intensity was measured with FACS Calibur available from Becton, Dickinson and Company. Separately, as a control, the same procedure as in above was performed using an iso-type control antibody, instead of the culture supernatants containing the mouse monoclonal antibodies #1 to #22 against a CAPRIN-1 protein and the mouse-chicken chimeric antibodies #1 to #3. As a result, the fluorescence intensity in the cells to which any of the monoclonal antibodies #1 to #22 and the mouse-chicken chimeric antibodies #1 to #3 was added was 20% or more higher than that in the control in every case. Specifically, in the case of using mouse-chicken chimeric antibody #1, the fluorescence intensity was enhanced by 200% or more in both SK-Hep-1 and Hep3B. […] The rate of increase in the fluorescence intensity is represented by the rate of increase in the mean fluorescence intensity (MFI value) in each cell and is calculated by the following calculation formula: […]

| rate of increase in mean fluorescence intensity [%] | Binder |
| --- | --- |
| ≥ 20 | B1 |
| ≥ 20 | B2 |
| ≥ 20 | B3 |
| ≥ 20 | B4 |
| ≥ 20 | B5 |
| ≥ 20 | B6 |

The binders below were run against T2, human CAPRIN-1 recombinant protein (assay: reactivity with CAPRIN-1 protein, method not detailed).

| binding result | Binder |
| --- | --- |
| binds | B7 |
| binds | B8 |
| binds | B9 |

Each binder was assayed against T1, CAPRIN-1 protein on the cell surface of … (assay: reactivity with liver cancer cell lines, method not detailed).

| binding result | Binder |
| --- | --- |
| binds | B7 |
| binds | B8 |
| binds | B9 |

Target: T3, peptide set forth in SEQ ID NO: 267
Test: ELISA on immobilised synthetic CAPRIN-1 peptides, culture supernatant

| binding result | Binder |
| --- | --- |
| binds | B10 |
| binds | B5 |

Target: T4, polypeptide set forth in SEQ ID NO: 266
Test: as above

| binding result | Binder |
| --- | --- |
| binds | B10 |
| binds | B5 |

Target: T5, polypeptide set forth in SEQ ID NO: 430
Test: reactivity with the epitope peptide, method not detailed

| binding result | Binder |
| --- | --- |
| binds | B7 |
| binds | B8 |
| binds | B9 |

Each binder was assayed against T1, CAPRIN-1 protein on the cell surface of … (assay: flow cytometry on Hep3B, HepG2, SK-Hep-1, SW480; antibody 20 ug/mL; control: secondary antibody only).
Procedure: Four human liver cancer cell lines (Hep3 GB, HepG2, SK-Hep-1, and SW480) were investigated whether or not a CAPRIN-1 protein is expressed on the cell surface using mouse anti-CAPRIN-1 monoclonal antibodies #30 to #36. 5×10⁵ cells of each of the liver cancer cell lines were centrifuged with a 1.5-mL micro centrifugation tube. The cells were subjected to reaction with each of mouse anti-CAPRIN-1 antibodies #30 to #36 at a final concentration of 20 μg/mL, followed by being left to stand on ice for 1 hour. After washing with PBS, the cells were reacted with a 100-fold diluted Alexa488-labeled goat anti-mouse IgG antibody (manufactured by Invitrogen Corporation), followed by being left to stand on ice for […]. After washing with PBS, the fluorescence intensity was measured with FACS Calibur available from Becton, Dickinson and Company. Separately, the cells were subjected to reaction with only the secondary antibody as a negative control.

| increase in fluorescence intensity over the control [%] | Binder |
| --- | --- |
| ≥ 35 | B11 |
